The results in this text go back to paper PMC3140584, “Structure–function relationships of the competence lipoprotein ComL and SSB in meningococcal transformation”.

This series concerns the target T1, ComL (Neisseria meningitidis MC58, UniProt Q9K0B1 17-267).
T1 sequence: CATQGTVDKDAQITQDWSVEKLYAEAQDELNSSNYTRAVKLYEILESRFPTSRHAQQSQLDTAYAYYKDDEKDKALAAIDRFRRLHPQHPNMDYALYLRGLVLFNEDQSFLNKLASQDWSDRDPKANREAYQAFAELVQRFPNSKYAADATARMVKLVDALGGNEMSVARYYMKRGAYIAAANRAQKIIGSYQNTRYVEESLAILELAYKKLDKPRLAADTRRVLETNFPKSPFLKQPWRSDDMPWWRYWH
Put plainly: EMSA; 5 mM Mg2+; EMSA: 4.5 fmol DNA in 10 µl; 10% glycerol, 5 mM MgCl2, 0.02 mg/ml BSA, 1 mM DTT, with half volume of protein in 50 mM NaH2PO4, 300 mM NaCl, pH 8.0, 0.1% DDM (final about 25 mM phosphate, 150 mM NaCl, 0.05% DDM); 37 °C, 15 min; 6% PAGE Tris/glycine/EDTA. The conditions noted are these: protein: recombinant, tags: C-terminal 6xHis, label: 5'-32P. (In general: Mobility shift assays separate free from complexed probe on a gel.)

B1: HH10 ssDNA without DUS (ssDNA)
DNA: AACAACAACAAAAGGCCTGTCATCCAACTTCCGGACAGTAAACAACAACAAC
Regarding B1, the “apparent K (half saturation)” value was determined as 926 nM.

B2: HH10/HH11 dsDNA without DUS (dsDNA)
DNA 1: B1 DNA
DNA 2: GTTGTTGTTGTTTACTGTCCGGAAGTTGGATGACAGGCCTTTTGTTGTTGTT
As to B2, the “apparent K (half saturation)” value (blunt) stood at 467 nM.
